T1: wild-type CBP80 expressed alone in insect cells (human, UniProt Q09161 1-790)
T1 sequence: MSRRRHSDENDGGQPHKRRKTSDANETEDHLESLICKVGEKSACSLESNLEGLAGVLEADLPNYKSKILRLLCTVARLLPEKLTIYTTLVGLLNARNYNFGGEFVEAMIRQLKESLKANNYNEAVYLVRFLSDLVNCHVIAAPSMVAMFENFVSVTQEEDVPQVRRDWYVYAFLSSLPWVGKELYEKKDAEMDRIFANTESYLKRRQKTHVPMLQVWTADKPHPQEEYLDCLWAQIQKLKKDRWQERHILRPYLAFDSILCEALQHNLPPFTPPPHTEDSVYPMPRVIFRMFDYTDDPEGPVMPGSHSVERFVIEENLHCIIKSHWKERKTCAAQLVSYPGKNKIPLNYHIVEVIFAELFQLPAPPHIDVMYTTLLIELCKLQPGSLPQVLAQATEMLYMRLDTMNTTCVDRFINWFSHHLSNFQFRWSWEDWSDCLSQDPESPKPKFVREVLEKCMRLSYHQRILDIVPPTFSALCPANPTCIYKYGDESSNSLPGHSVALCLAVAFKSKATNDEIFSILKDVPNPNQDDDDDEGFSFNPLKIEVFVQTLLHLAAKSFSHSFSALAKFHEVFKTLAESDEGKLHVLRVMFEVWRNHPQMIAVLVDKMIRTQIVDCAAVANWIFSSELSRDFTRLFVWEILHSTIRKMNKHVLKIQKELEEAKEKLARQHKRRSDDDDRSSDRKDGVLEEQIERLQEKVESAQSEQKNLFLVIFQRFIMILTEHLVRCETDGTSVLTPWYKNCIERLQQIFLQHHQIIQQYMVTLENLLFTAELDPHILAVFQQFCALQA


What was measured:
[1] = target: T1, wild-type CBP80 expressed alone in …; test: pull-down
[2] = target: T2, full-length human importin-β1 (human, UniProt Q14974 1-876); test: native gel or EMSA
[3] = target: T2, full-length human importin-β1; test: pull-down
[4] = target: T3, full-length human importin-α isoform 1 (karyopherin-α2) (human, UniProt P52292 1-529); test: SEC
[5] = target: T3, full-length human importin-α isoform 1 …; test: pull-down

T2 sequence (Q14974 whole entry): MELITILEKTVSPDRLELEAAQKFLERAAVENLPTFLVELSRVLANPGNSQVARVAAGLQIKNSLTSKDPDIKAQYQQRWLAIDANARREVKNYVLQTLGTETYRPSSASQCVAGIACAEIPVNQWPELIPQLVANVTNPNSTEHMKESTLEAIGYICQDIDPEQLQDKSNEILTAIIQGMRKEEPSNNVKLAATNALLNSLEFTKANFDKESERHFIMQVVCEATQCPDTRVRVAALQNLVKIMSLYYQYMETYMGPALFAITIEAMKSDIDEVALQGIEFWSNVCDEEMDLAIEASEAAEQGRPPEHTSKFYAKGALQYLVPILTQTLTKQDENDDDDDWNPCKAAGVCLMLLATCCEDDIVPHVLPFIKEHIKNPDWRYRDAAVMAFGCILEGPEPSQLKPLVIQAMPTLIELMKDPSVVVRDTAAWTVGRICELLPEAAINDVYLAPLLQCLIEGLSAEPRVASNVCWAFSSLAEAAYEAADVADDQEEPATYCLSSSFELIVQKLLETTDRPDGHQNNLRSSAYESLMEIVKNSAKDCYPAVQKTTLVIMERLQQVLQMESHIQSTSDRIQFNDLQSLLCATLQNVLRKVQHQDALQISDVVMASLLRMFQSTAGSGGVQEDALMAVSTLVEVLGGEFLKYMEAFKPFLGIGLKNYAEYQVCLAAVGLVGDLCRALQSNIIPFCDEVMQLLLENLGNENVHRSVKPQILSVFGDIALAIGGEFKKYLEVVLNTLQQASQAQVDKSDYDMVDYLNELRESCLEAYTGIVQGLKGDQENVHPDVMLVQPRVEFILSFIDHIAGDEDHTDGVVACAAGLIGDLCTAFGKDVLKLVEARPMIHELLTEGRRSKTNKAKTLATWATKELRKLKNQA

Row | Binder | binding result [1] | binding result [2] | further results
1 | His-tagged CBP20 Δ1–14 (domain or fragment) VELSQYRDQHFRGDNEEQEKLLKKSCTLYVGNLSFYTTEEQIYELFSKSGDIKKIIMGLDKMKKTACGFCFVEYYSRADAENAMRYINGTRLDDRIIRTDWDAGFKEGRQYGRGRSGGQVRDEYRQDYDAGRGGYGKLAQNQ | binds | – | –
2 | CBP20 Δ1–14 (domain or fragment) VELSQYRDQHFRGDNEEQEKLLKKSCTLYVGNLSFYTTEEQIYELFSKSGDIKKIIMGLDKMKKTACGFCFVEYYSRADAENAMRYINGTRLDDRIIRTDWDAGFKEGRQYGRGRSGGQVRDEYRQDYDAGRGGYGKLAQNQ | – | binds | –
3 | His-tagged CBP20 Δ1–14Δ126–156 (domain or fragment) VELSQYRDQHFRGDNEEQEKLLKKSCTLYVGNLSFYTTEEQIYELFSKSGDIKKIIMGLDKMKKTACGFCFVEYYSRADAENAMRYINGTRLDDRIIRTDWDAGFKEGRQY | binds | – | –
4 | CBP20 Δ126–156 (domain or fragment) MSGGLLKALRSDSYVELSQYRDQHFRGDNEEQEKLLKKSCTLYVGNLSFYTTEEQIYELFSKSGDIKKIIMGLDKMKKTACGFCFVEYYSRADAENAMRYINGTRLDDRIIRTDWDAGFKEGRQY | – | binds | –
5 | His-tagged CBP20 Δ126–156 (domain or fragment) MSGGLLKALRSDSYVELSQYRDQHFRGDNEEQEKLLKKSCTLYVGNLSFYTTEEQIYELFSKSGDIKKIIMGLDKMKKTACGFCFVEYYSRADAENAMRYINGTRLDDRIIRTDWDAGFKEGRQY | binds | – | –
6 | His-tagged full-length CBP20 (natural protein) MSGGLLKALRSDSYVELSQYRDQHFRGDNEEQEKLLKKSCTLYVGNLSFYTTEEQIYELFSKSGDIKKIIMGLDKMKKTACGFCFVEYYSRADAENAMRYINGTRLDDRIIRTDWDAGFKEGRQYGRGRSGGQVRDEYRQDYDAGRGGYGKLAQNQ | binds | – | binding result [3]: binds
7 | full-length CBP20 (natural protein) MSGGLLKALRSDSYVELSQYRDQHFRGDNEEQEKLLKKSCTLYVGNLSFYTTEEQIYELFSKSGDIKKIIMGLDKMKKTACGFCFVEYYSRADAENAMRYINGTRLDDRIIRTDWDAGFKEGRQYGRGRSGGQVRDEYRQDYDAGRGGYGKLAQNQ | – | binds | –
8 | human nuclear cap-binding complex (CBC), CBP20 and CBP80 co-expressed (complex) chain 1: MSRRRHSDENDGGQPHKRRKTSDANETEDHLESLICKVGEKSACSLESNLEGLAGVLEADLPNYKSKILRLLCTVARLLPEKLTIYTTLVGLLNARNYNFGGEFVEAMIRQLKESLKANNYNEAVYLVRFLSDLVNCHVIAAPSMVAMFENFVSVTQEEDVPQVRRDWYVYAFLSSLPWVGKELYEKKDAEMDRIFANTESYLKRRQKTHVPMLQVWTADKPHPQEEYLDCLWAQIQKLKKDRWQERHILRPYLAFDSILCEALQHNLPPFTPPPHTEDSVYPMPRVIFRMFDYTDDPEGPVMPGSHSVERFVIEENLHCIIKSHWKERKTCAAQLVSYPGKNKIPLNYHIVEVIFAELFQLPAPPHIDVMYTTLLIELCKLQPGSLPQVLAQATEMLYMRLDTMNTTCVDRFINWFSHHLSNFQFRWSWEDWSDCLSQDPESPKPKFVREVLEKCMRLSYHQRILDIVPPTFSALCPANPTCIYKYGDESSNSLPGHSVALCLAVAFKSKATNDEIFSILKDVPNPNQDDDDDEGFSFNPLKIEVFVQTLLHLAAKSFSHSFSALAKFHEVFKTLAESDEGKLHVLRVMFEVWRNHPQMIAVLVDKMIRTQIVDCAAVANWIFSSELSRDFTRLFVWEILHSTIRKMNKHVLKIQKELEEAKEKLARQHKRRSDDDDRSSDRKDGVLEEQIERLQEKVESAQSEQKNLFLVIFQRFIMILTEHLVRCETDGTSVLTPWYKNCIERLQQIFLQHHQIIQQYMVTLENLLFTAELDPHILAVFQQFCALQA chain 2: MSGGLLKALRSDSYVELSQYRDQHFRGDNEEQEKLLKKSCTLYVGNLSFYTTEEQIYELFSKSGDIKKIIMGLDKMKKTACGFCFVEYYSRADAENAMRYINGTRLDDRIIRTDWDAGFKEGRQYGRGRSGGQVRDEYRQDYDAGRGGYGKLAQNQ | – | – | binding result [4]: binds
9 | apo-CBC reconstituted from His-tagged CBP20 and CBP80 (complex) chain 1: MSGGLLKALRSDSYVELSQYRDQHFRGDNEEQEKLLKKSCTLYVGNLSFYTTEEQIYELFSKSGDIKKIIMGLDKMKKTACGFCFVEYYSRADAENAMRYINGTRLDDRIIRTDWDAGFKEGRQYGRGRSGGQVRDEYRQDYDAGRGGYGKLAQNQ chain 2: MSRRRHSDENDGGQPHKRRKTSDANETEDHLESLICKVGEKSACSLESNLEGLAGVLEADLPNYKSKILRLLCTVARLLPEKLTIYTTLVGLLNARNYNFGGEFVEAMIRQLKESLKANNYNEAVYLVRFLSDLVNCHVIAAPSMVAMFENFVSVTQEEDVPQVRRDWYVYAFLSSLPWVGKELYEKKDAEMDRIFANTESYLKRRQKTHVPMLQVWTADKPHPQEEYLDCLWAQIQKLKKDRWQERHILRPYLAFDSILCEALQHNLPPFTPPPHTEDSVYPMPRVIFRMFDYTDDPEGPVMPGSHSVERFVIEENLHCIIKSHWKERKTCAAQLVSYPGKNKIPLNYHIVEVIFAELFQLPAPPHIDVMYTTLLIELCKLQPGSLPQVLAQATEMLYMRLDTMNTTCVDRFINWFSHHLSNFQFRWSWEDWSDCLSQDPESPKPKFVREVLEKCMRLSYHQRILDIVPPTFSALCPANPTCIYKYGDESSNSLPGHSVALCLAVAFKSKATNDEIFSILKDVPNPNQDDDDDEGFSFNPLKIEVFVQTLLHLAAKSFSHSFSALAKFHEVFKTLAESDEGKLHVLRVMFEVWRNHPQMIAVLVDKMIRTQIVDCAAVANWIFSSELSRDFTRLFVWEILHSTIRKMNKHVLKIQKELEEAKEKLARQHKRRSDDDDRSSDRKDGVLEEQIERLQEKVESAQSEQKNLFLVIFQRFIMILTEHLVRCETDGTSVLTPWYKNCIERLQQIFLQHHQIIQQYMVTLENLLFTAELDPHILAVFQQFCALQA | – | – | binding result [5]: binds

From article PMC2782468 (Nature structural & molecular biology, 2009)
